Values belong to the binder of their own block, whether it stands above or below them.
Key:
[1] = molecular target: T1, CENP-T^6D (CENP-T^6D-GFP-Spy-tag) (human, UniProt Q96BT3 1-242, T11D | T27D | S47D | T85D | T195D | S201D); assay: TIRF microscopy of clusters
CENP-T^2D [2] = molecular target: T2, CENP-T^2D (human, UniProt Q96BT3 1-242, T11D | T85D); assay: TIRF microscopy of clusters
CENP-T^site1 [3] = molecular target: T3, CENP-T^site1 (human, UniProt Q96BT3 1-242, T11D | deletion of amino acids from 76 to 106); assay: TIRF microscopy of single molecules
[4] = molecular target: T1, CENP-T^6D (CENP-T^6D-GFP-Spy-tag); assay: TIRF microscopy of single molecules
CENP-T^site1 [5] = molecular target: T3, CENP-T^site1; assay: TIRF microscopy of single molecules; remark: listed apart in the source
CENP-T^site2 = CENP-T^site2 (human, UniProt Q96BT3 1-242, T85D | deletion of amino acids from 2 to 30); assay: TIRF microscopy of single molecules
CENP-T^2D [6] = molecular target: T2, CENP-T^2D; assay: fluorescence correlation spectroscopy

stoichiometry N [1]: ≤ 2 Ndc80 molecules per CENP-T
binding result (CENP-T^2D [2]): binds
fold reduction of kon of site 1 against CENP-T^2D and CENP-T^6D (model fit) (CENP-T^site1 [3]): 8 fold
stoichiometry N [4]: ~2 Ndc80 molecules per CENP-T
stoichiometry N (CENP-T^site1 [5]): ~1 Ndc80 molecules per CENP-T
stoichiometry N (CENP-T^site2): ~1 Ndc80 molecules per CENP-T
B1: Human Bonsai Ndc80 complex with C-terminal GFP (complex)
chain 1: MKRSSVSSGGAGRLSMQELRSQDVNKQGLYTPQTKEKPTFGKLSINKPTSERKVSLFGKRTSGHGSRNSQLGIFSSSEKIKDPRPLNDKAFIQQCIRQLCEFLTENGYAHNVSMKSLQAPSVKDFLKIFTFLYGFLCPSYELPDTKFEEEVPRIFKDLGYPFALSKSSMYTVGAPHTWPHIVAALVWLIDCIKIHTAMKESSPLFDDGQPWGEETEDGIMHNKLFLDYTIKCYESFMSGADSFDEMNAELQSKLKDLFNVDAFKLESLEAKNRALNEQIARLEQERSTANKANAERLKRLQKSADLYKDRLGLEIRKIYGEKLQFIFTNIDPKNPESPFMFSLHLNEARDYEVSDSAPHLEGLAEFQENVRKTNNFSAFLANVRKAFTATVYN
chain 2: METLSFPRYNVAEIVIHIRNKILTGADGKNLTKNDLYPNPKPEVLHMIYMRALQIVYGIRLEHFYMMPVNSEVMYPHLMEGFLPFSNLVTHLDSFLPICRVNDFETADILCPKAKRTSRFLSGIINFIHFREACRETYMEFLWQYKSSADKMQQLNAAHQEALMKLERLEKEVDEDTTVTIPSAVYVAQLYHQVSKIEWDYECEPGMVKGIHHGPSVAQPIHLDSTQLSRKFISDYLWSLVDTEW

binding result (CENP-T^2D [6]): binds
B2: Human Bonsai Ndc80 complex, untagged (complex)
chain 1: B1 chain 1
chain 2: B1 chain 2
